Assays:
[1] = tested on: recombinant alpha2-gliadin
[2] = tested on: T1, gliadin peptide PQPQLPYPQPQLP
T1 sequence: PQPQLPYPQPQLP

[3] = tested on: T2, 33-mer gliadin peptide LQLQPFPQPQLPYPQPQLPYPQPQLPYPQPQPF
T2 sequence: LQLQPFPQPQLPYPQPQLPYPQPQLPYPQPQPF

Chain of barley endoprotease EPB2, mature form (chain, as listed by the source): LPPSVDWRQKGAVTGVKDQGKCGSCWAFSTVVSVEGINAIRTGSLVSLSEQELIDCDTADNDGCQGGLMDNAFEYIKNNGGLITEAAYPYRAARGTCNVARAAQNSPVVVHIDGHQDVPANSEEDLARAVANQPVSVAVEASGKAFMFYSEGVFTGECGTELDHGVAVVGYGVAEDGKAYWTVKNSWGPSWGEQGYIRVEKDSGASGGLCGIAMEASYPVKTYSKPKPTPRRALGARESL

Row | Substance | digestion of purified α2-gliadin under acidic conditions [1] | Kcat/KM [2] | competitive proteolysis of the 13-mer and the 33-mer [2] | rate of substrate (33-mer+32-mer) disappearance [3] | time to hydrolyze 10 µM of the 33-mer with 0.1 µM enzyme [3]
1 | barley endoprotease EPB2, mature form | efficiently digests purified α2-gliadin |  |  |  | 
2 | Sphingomonas capsulata prolyl endopeptidase (recombinant, expressed in E. coli) |  | 492 mM^-1/s^-1 | showed a clear preference for the 13-mer peptide | 0.07 µM/min (SC PEP) | required >1 hr to reach a comparable endpoint
3 | Myxococcus xanthus prolyl endopeptidase (recombinant, expressed in E. coli) |  | 548 mM^-1/s^-1 | showed a clear preference for the 13-mer peptide | 0.43 µM/min (MX PEP) | 
